Results as given in patent US20230110085A1.

Tests used:
[1] = target: purified human IgM (#16-16-090713-M, Athens Research & Technology) (human); test: Western blot of DTT-reduced purified human IgM titrated 1250 to 4.8 ng/well
[2] = target: purified human IgM (#16-16-090713-M, Athens Research & Technology) (human); test: cell-based or functional assay
[3] = target: human IgG (IVIg, Gamunex) (human); test: cell-based or functional assay

Row | detection limit (lowest IgM amount with visible band) [1] | Substance | cleavage on SDS-PAGE [2] | digestion on SDS-PAGE gel [2] | cleavage on SDS-PAGE (full cleavage) [3] | cleavage on SDS-PAGE (to scIgG) [3]
1 | 19 ng/well | PE-conjugated donkey anti-human IgM (#IGM-PEC1, One Lambda) (antibody) | – | – | – | –
2 | – | imlifidase (IdeS), immunoglobulin G-degrading cysteine protease of S. pyogenes (enzyme) | > 200 µg/mL | > 200 µg/mL | 2 µg/mL | 0.2 µg/mL
